Test results: US20240290419A1 (KATHOLIEKE UNIVERSITEIT LEUVEN, published 2024)

Assays:
[1] = biological target: the molecule itself; test: size exclusion chromatography, after EDTA
Excerpt: (§1) FIG. 29: Size Exclusion Chromatograms for various SAKe mutants. A: S6BE-3 HR on a HiLoad Superdex 75 pg 16/600 column. B: S6BE-3CHR on a HiLoad Superdex 200 pg 16/600 column. C: S2BE-3 HR on a HiLoad Superdex 75 pg 16/600 column. D: S6BE-3 HR-L3 on a HiLoad Superdex 200 pg 16/600 column. E: mEm-v22S6BE-3 HR on a HiLoad Superdex 200 pg 16/600 column. F: dS6AC on a HiLoad Superdex 200 pg 16/600 column.
(§2) Concentrated protein samples were loaded on HiLoad Superdex 75 pg 16/600 or HiLoad Superdex 200 pg 16/600 SEC columns (Cytiva). SEC can also be used to assess biological size. All samples were run with a HEPES buffer (20 mM HEPES, pH 8.0, 200 mM NaCl). Proteins expected to interact with metals were incubated with at least 5 mM EDTA prior to SEC injection.

[2] = biological target: the molecule itself; test: size exclusion chromatography
Excerpt: as §1, §2

[3] = biological target: the molecule itself; test: dialysis to pH 4.0 and X-ray diffraction; self-assembly into crystals
Excerpt: SAKe's symmetry and modifiable interfaces make it an ideal building block for construction of macromolecular assemblies. […] To understand this reversible self-assembly mechanism, the crystals formed at different pH were investigated with XRD. […] At pH 8.0, His (pKa3 6.08-6.90) and Glu (pKa 4.3-4.4) are deprotonated and the net […] charge of S6BE likely causes mutual repulsion. However, at pH 4 these residues are protonated. Due to its symmetry and dipole-like character, S6BE shape and charge complementarity is then expected to allow for self-assembly into a tight hexagonal packing (FIGS. 2 and 11). A series of hydrogen bonds and hydrophobic interactions can then further stabilize the assembly. Similar mechanisms have been reported for the capsid proteins of cowpea chlorotic mosaic virus (CCMV) [Speir et al. Structure 1995, 3, 63-78; Lavelle et al. J. Phys. Chem. B 2009, 113, 3813-3819; Van Eldijk et al. J. Am. Chem. Soc. 2012, 134, 18506-18509].

[4] = biological target: the molecule itself; test: SDS PAGE, SEC, XRD; self-association

B1: S6BE-3HR-L3 (other)
chain: NGLIYAVGGYDGSPDGSTHLNSVEAYDPERNEWSLVAPLSTRRSGVGVAVLNGLIYAVGGFATLETESGELVPTELNSVEAYDPHRNEWSLVAPLSTRRSGVGVAVLNGLIYAVGGYDGSPDGSTHLNSVEAYDPERNEWSLVAPLSTRRSGVGVAVLNGLIYAVGGFATLETESGELVPTELNSVEAYDPHRNEWSLVAPLSTRRSGVGVAVLNGLIYAVGGYDGSPDGSTHLNSVEAYDPERNEWSLVAPLSTRRSGVGVAVLNGLIYAVGGFATLETESGELVPTELNSVEAYDPHRNEWSLVAPLSTRRSGVGVAVL
notes: L3 loop graft on the S6BE-3HR scaffold
- binding result [1]: no binding

B2: dS6AC (other)
chain: NGRIYAVGGYDGSPDGHTHLNSVEAYDPETDEWSFVAPMTTPRSGVGVAVLNGRIYAVGGYDGSPDGHTHLNSVEAYDPETDEWSFVAPMTTPRSGVGVAVLNGRIYAVGGYDGSPDGHTHLNSVEAYDPETDEWSFVAPMTTPRSGVGVAVLNGRIYAVGGYDGSPDGHTHLNSVEAYDPETDEWSFVAPMTTPRSGVGVAVLNGRIYAVGGYDGSPDGHTHLNSVEAYDPETDEWSFVAPMTTPRSGVGVAVLNGRIYAVGGYDGSPDGHTHLNSVEAYDPETDEWSFVAPMTTPRSGVGVAVLSGGRIYAVGGYDGSPDGHTHLNSVEAYDPETDEWSFVAPMTTPRSGVGVAVLNGRIYAVGGYDGSPDGHTHLNSVEAYDPETDEWSFVAPMTTPRSGVGVAVLNGRIYAVGGYDGSPDGHTHLNSVEAYDPETDEWSFVAPMTTPRSGVGVAVLNGRIYAVGGYDGSPDGHTHLNSVEAYDPETDEWSFVAPMTTPRSGVGVAVLNGRIYAVGGYDGSPDGHTHLNSVEAYDPETDEWSFVAPMTTPRSGVGVAVLNGRIYAVGGYDGSPDGHTHLNSVEAYDPETDEWSFVAPMTTPRSGVGVAVL
notes: Genetic fusion of two S6AC units via a Ser linker
- binding result [2]: no binding

B3: S6BE (other)
chain: MNGLIYAVGGYDGNTHLNSVEAYDPERNEWSLVAPLSTRRSGVGVAVLNGLIYAVGGYDGNTHLNSVEAYDPERNEWSLVAPLSTRRSGVGVAVLNGLIYAVGGYDGNTHLNSVEAYDPERNEWSLVAPLSTRRSGVGVAVLNGLIYAVGGYDGNTHLNSVEAYDPERNEWSLVAPLSTRRSGVGVAVLNGLIYAVGGYDGNTHLNSVEAYDPERNEWSLVAPLSTRRSGVGVAVLNGLIYAVGGYDGNTHLNSVEAYDPERNEWSLVAPLSTRRSGVGVAVL
notes: Designed six-blade B-type SAKe propeller; Expressed with an N-terminal His tag that was removed with thrombin; also called SAKe6BE; S6_6E
- binding result [3]: binds

B4: S2BE-3HR (other)
chain: NGLIYAVGGYDGNTHLNSVEAYDPERNEWSLVAPLSTRRSGVGVAVLNGLIYAVGGYDGNTHLNSVEAYDPHRNEWSLVAPLSTRRSGVGVAVL
notes: Designed two-blade truncation of S6BE-3HR; Expressed from pET-28a with an N-terminal hexahistidine tag that was removed with thrombin
- binding result [4]: binds
